Here are results for 2 sequences from patent US20170137818.

The series has as its target autotaxin (ENPP2/NPP2) (Homo sapiens) (UniProt Q13822). As to the kind of experiment: inhibition.
[1] abbreviates: NPP2 assay, no inhibition up to 1.0 uM.

Consider “GTGGTCTAGCTGTACTCNNNNNNNNNNNNNNNNNNNNNNNNNNNNNNNNNNNNNNNNCCACAGTCAACGAGCTA [40N DNA pool (SEQ 1)]”, for which the 50% inhibitory concentration (IC50) by setting is: (LysoPLD assay, table says 40N only (which pool not stated)) more than 1 µM; under setting [1], more than 1 µM.
Under setting [1], “ACACTCACAGGCGCTGGNNNNNNNNNNNNNNNNNNNNNNNNNNNNNNCGTGCATGGCCGCTAGT [DNA pool (SEQ 17)]” registered a 50% inhibitory concentration (IC50) of more than 1 µM.
